In patent publication US20190359983, “TARGETED OLIGONUCLEOTIDES” (CARIS SCIENCE, INC., published 2019):

B1: 83S-B1 full (ssDNA)
DNA: CTAGCATGACTGCAGTACGTACTATAGAACAATCCACCGCTTTAAATCAACTATCTTACTGTCTCTTATACACATCTGACGCTGCCGACGA
B2: 83S-B11 full (ssDNA)
DNA: CTAGCATGACTGCAGTACGTAACCCAATTCACATACACTCTCACCCCCACTAAACACTGTCTCTTATACACATCTGACGCTGCCGACGA

Assays:
[1] = target: T1, Complement C1q (C1qA/C1qB/C1qC) (UniProt P02745;P02746;P02747 P02745:23-245,P02746:28-253,P02747:29-245); experiment: FP filter; nitrocellulose filter retention; concentration dependent binding; settings: chain copies: 6; label: radiolabel (filter); biotin (pulldown)
T1 sequence (P02745 23-245, chain 1 of 3): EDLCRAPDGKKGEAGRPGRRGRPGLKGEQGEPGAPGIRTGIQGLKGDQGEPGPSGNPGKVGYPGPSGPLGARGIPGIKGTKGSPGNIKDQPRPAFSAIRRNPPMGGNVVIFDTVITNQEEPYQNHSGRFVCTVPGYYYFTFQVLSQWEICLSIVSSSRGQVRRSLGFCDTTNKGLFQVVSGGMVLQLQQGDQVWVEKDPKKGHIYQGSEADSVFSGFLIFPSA
T1 sequence (P02746 28-253, chain 2 of 3): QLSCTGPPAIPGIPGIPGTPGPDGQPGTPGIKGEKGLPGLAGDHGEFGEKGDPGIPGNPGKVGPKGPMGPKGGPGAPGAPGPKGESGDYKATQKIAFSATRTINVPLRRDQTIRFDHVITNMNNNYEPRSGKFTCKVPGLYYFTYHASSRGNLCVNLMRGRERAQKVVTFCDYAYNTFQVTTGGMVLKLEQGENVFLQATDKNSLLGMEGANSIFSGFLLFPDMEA
T1 sequence (P02747 29-245, chain 3 of 3): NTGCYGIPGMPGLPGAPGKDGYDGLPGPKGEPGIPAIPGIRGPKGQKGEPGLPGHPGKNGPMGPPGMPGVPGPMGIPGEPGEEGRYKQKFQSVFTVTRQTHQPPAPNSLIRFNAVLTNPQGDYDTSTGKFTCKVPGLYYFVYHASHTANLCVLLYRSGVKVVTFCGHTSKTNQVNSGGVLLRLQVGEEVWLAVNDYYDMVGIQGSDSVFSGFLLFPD
Method: (§1) To further investigate the interaction of aptamer B1 and B11 with C1q, we performed a filter retention assay. Radioactively labelled B1 and B11 were incubated with increasing concentrations of purified C1q and subsequently passed through a nitrocellulose membrane. The amount of oligonucleotides retained on membrane-immobilized C1q was then quantified by autoradiography. […] Similar results were obtained with B11 and B11rc in an Enzyme-Linked Oligonucleotide Assay (ELONA; see U.S. Pat. No. 5,789,163, which patent is incorporated herein in its entirety). […] As a control, the reverse complement of B11, B11RC, was used (squares).

[2] = target: T1, Complement C1q (C1qA/C1qB/C1qC); experiment: ELONA; estimated; C1q fixed at 0.625 nM; settings: chain copies: 6; label: radiolabel (filter); biotin (pulldown, ELONA)
Method: as §1

Row | Binder | binding result [1] | Kd [2] [nM]
1 | B1 | binds | –
2 | B2 | – | ~40
